This is an account of results in article PMC10602139, “Architecture and rearrangements of a sperm-specific Na^+/H^+ exchanger” (Research Square, 2023).

This data set concerns the molecule itself. The experiment in a line: cryo-EM structure; single-particle cryo-EM of purified protein in digitonin micelles; pH 8 or pH 6, NaCl or KCl; WT also with 5 mM cAMP at pH 6; C2 symmetry imposed.

B1: sp9C1 R399A mutant, tag cleaved (cryo-EM sample) (natural protein, Strongylocentrotus purpuratus, UniProt A3RL54 30-1325, looked up)
chain: SSGGSGHTPTTQATHADDHDLTTHNGTEEHDDGHDDGHDDLHAHAPKVIVFISGSCLFGAISRSLFKKLPIPYTVVLLILGAILGVVASNVPLVEEHTRDVAHMDPHVLLQIFLPVLIFESAFAMDVHTFMRSFSQVCILALFGLVVASVLTAVLAMNLFNYNWNFSEAMMFGAIMSATDPVAVVALLKDLGASKQLGTIIEGESLLNDGCAIVIFNVFMKMVFFPQLTSTVGQNVLYFLQVAVAGPLWGYAVAKVTVFFLSHIFNDALVEITITLAATYLTYYIGDIWLEVSGVLAVVVLGLIVNAEKTSISPEVEVFLHRFWEMLAYLANTLIFMMVGVVVTQKALVAVDKMDWFYLIILYLAITIIAGMVISLFSPILSRIGYGLTWRNAVIMTWGGLRGAVGLALALVVENLAGNDVIGSKFLFHTAGIVVLTLVINATTIQTLLRILGMSDISIPKRLAMAGAVRRIHEGQNRTLNMLKSDRFLADADWDIATAACEISDPYSALSDDENAPADELTLGERKSVCPGCKAMVPNEPSPREFADMMEEARLRMLKAEKISYWKQFEHGMLAREALRLLVQHAEVAADEKDQFILVDDLKKSWQIKGIYPWLKRKLEDLISEKKIAAIPMPKYKLGKLMYKICHHMAFEVTINIAIVLNIVPIIMEFVVQDKMASVSTMAAPGSTVSSEPSSLQKIEDALRISNYVFFVIYAIEAIVKILGLGRHYIVSHWNKFDAFILVVALVDIIIAETLLKGSITINLSSIKVVKLFRLLRGLRMLRLTKALIPKLILVVNGKINNQLSLGYDVGKGYIIGEEEVGKIIDRMVDNKKILRELKHISETGRLQVVKELGLLQREHPGIAVSVKTRQAIRTILNHSRETIHELQGAGLLDEMEAHKLELTVEIKMKRLMNAPSSIPPPPPENLLKNVSWLAGDMKLIDFIKARASLLHFDYGEVIVREGDESDGLFLIVSGLVKLYGKSAFLDHDNPPVTAGSEENEVFEDYLTVGNVIGEMGVLTKKPRNATVTCETTVQVYFITAEDMNIAIDTFTLYPSLEYRLWRVVAIRIATPLIMEQMAFQGWTQEKVKLHLERGYLVDLAESHFQFNIDATLEDVILINGTAYNAHTREEIRSPCLISRTVHKLTFQYTATEEPRLFVVRNAEYNGPILDGRLDVDSKRSLISITEISSNMCLKHAAELRQKNSKVMLSRKSSGAAAKEEEDCIPNTSDVEQAAGVSPSVPTKTTPKPKSFLPSLGLSMSKERVNGEAVEESPVKTKQGEETPETEEGAAPRVNV
notes: SLC9C1, Strongylocentrotus purpuratus, full length with R399A; made in the background of the parent construct; source: HEK293F, transiently transfected; purified in digitonin (anti-GFP-nanobody resin, PreScission cleavage, gel filtration); not shown: mEGFP, C-terminal, cleaved; Twinstrep, C-terminal, cleaved
Turning to B1, the binding result is recorded as “binds”.
